Laboratory results from PMC9482650, “Quantitative fragmentomics allow affinity mapping of interactomes” (Nature Communications, 2022).

B1: GNG4, P50150 (peptide)
chain: REKKFFCTIL

molecular target: SCRIB_1, Q14160; test: holdup assay; design: key: below the threshold = too weak to quantify, mostly under pKd 3.1 to 4; conditions: plain residues with an end cap or a label only (N-terminal biotin on a linker: ado-ado)
Sequence (Q14160 718-814): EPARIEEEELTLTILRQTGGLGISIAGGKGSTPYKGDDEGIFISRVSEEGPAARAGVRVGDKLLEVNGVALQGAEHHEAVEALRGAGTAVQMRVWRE

Binder | pKd
B1 | 5.33

molecular target: GRIP2_5, Q9C0E4; test: holdup assay; design: key: below the threshold = too weak to quantify, mostly under pKd 3.1 to 4; conditions: plain residues with an end cap or a label only (N-terminal biotin on a linker: ado-ado)
Sequence (Q9C0E4 544-642): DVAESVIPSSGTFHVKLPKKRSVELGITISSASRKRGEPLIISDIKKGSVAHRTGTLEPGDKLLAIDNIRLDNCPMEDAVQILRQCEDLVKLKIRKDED

Binder | pKd
B1 | below the threshold

molecular target: T1, DLG3_3, Q92796; test: holdup assay; design: key: below the threshold = too weak to quantify, mostly under pKd 3.1 to 4; conditions: plain residues with an end cap or a label only (N-terminal biotin on a linker: ado-ado)
T1 sequence (Q92796 374-475, limits assumed, looked up): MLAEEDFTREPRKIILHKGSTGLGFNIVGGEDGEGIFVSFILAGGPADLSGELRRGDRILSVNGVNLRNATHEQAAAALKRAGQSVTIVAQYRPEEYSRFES

Binder | pKd
B1 | 4.38

molecular target: NHERF2_2, Q15599; test: holdup assay; design: key: below the threshold = too weak to quantify, mostly under pKd 3.1 to 4; conditions: plain residues with an end cap or a label only (N-terminal biotin on a linker: ado-ado)
Sequence (Q15599 142-238): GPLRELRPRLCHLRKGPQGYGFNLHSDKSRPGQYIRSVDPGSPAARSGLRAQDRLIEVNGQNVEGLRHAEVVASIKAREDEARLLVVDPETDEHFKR

Binder | pKd
B1 | 4.52

molecular target: Inadl_2, Q8NI35; test: holdup assay; design: key: below the threshold = too weak to quantify, mostly under pKd 3.1 to 4; conditions: plain residues with an end cap or a label only (N-terminal biotin on a linker: ado-ado)
Sequence (Q8NI35 238-335): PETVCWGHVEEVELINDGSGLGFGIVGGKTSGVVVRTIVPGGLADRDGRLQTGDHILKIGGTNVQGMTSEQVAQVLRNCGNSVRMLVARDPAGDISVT

Binder | pKd
B1 | below the threshold

molecular target: TJP2_1, Q9UDY2; test: holdup assay; design: key: below the threshold = too weak to quantify, mostly under pKd 3.1 to 4; conditions: plain residues with an end cap or a label only (N-terminal biotin on a linker: ado-ado)
Sequence (Q9UDY2 24-128): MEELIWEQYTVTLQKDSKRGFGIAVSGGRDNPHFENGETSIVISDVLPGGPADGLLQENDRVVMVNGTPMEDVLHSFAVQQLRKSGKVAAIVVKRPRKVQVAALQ

Binder | pKd
B1 | 4.93

molecular target: T2, RAPGEF6, Q8TEU7; test: holdup assay; design: key: below the threshold = too weak to quantify, mostly under pKd 3.1 to 4; conditions: plain residues with an end cap or a label only (N-terminal biotin on a linker: ado-ado)
T2 sequence (Q8TEU7 525-625, limits assumed, looked up): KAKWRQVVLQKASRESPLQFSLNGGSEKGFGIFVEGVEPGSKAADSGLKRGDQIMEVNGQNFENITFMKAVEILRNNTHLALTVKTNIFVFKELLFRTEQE

Binder | pKd
B1 | below the threshold

molecular target: T3, DFNB31_2, Q9P202; test: holdup assay; design: key: below the threshold = too weak to quantify, mostly under pKd 3.1 to 4; conditions: plain residues with an end cap or a label only (N-terminal biotin on a linker: ado-ado)
T3 sequence (Q9P202 274-371, limits assumed, looked up): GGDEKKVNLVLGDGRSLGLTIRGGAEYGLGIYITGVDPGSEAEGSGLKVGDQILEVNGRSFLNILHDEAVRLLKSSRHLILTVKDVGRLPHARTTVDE

Binder | pKd
B1 | below the threshold

molecular target: T4, NHERF3_4, Q5T2W1; test: holdup assay; design: key: below the threshold = too weak to quantify, mostly under pKd 3.1 to 4; conditions: plain residues with an end cap or a label only (N-terminal biotin on a linker: ado-ado)
T4 sequence (Q5T2W1 373-468, limits assumed, looked up): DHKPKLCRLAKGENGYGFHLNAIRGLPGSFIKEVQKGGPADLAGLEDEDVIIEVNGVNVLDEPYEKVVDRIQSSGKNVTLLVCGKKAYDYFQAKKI

Binder | pKd
B1 | 5.36

molecular target: T5, LRRC7, Q96NW7; test: holdup assay; design: key: below the threshold = too weak to quantify, mostly under pKd 3.1 to 4; conditions: plain residues with an end cap or a label only (N-terminal biotin on a linker: ado-ado)
T5 sequence (Q96NW7 1440-1537, limits assumed, looked up): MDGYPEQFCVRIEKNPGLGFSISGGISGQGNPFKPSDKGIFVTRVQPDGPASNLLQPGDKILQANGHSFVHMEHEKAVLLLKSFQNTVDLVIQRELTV

Binder | pKd
B1 | 3.97

molecular target: MAST2, Q6P0Q8; test: holdup assay; design: key: below the threshold = too weak to quantify, mostly under pKd 3.1 to 4; conditions: plain residues with an end cap or a label only (N-terminal biotin on a linker: ado-ado)
Sequence (Q6P0Q8 1099-1202): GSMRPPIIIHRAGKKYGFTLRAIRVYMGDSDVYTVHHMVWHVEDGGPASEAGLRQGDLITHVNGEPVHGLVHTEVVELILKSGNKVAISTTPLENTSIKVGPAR

Binder | pKd
B1 | 5.62

molecular target: T6, LIN7B, Q9HAP6; test: holdup assay; design: key: below the threshold = too weak to quantify, mostly under pKd 3.1 to 4; conditions: plain residues with an end cap or a label only (N-terminal biotin on a linker: ado-ado)
T6 sequence (Q9HAP6 88-185, limits assumed, looked up): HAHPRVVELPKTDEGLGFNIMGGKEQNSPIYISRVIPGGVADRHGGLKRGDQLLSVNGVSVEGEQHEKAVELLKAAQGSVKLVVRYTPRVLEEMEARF

Binder | pKd
B1 | 3.97

molecular target: LNX1_3, Q8TBB1; test: holdup assay; design: key: below the threshold = too weak to quantify, mostly under pKd 3.1 to 4; conditions: plain residues with an end cap or a label only (N-terminal biotin on a linker: ado-ado)
Sequence (Q8TBB1 500-596): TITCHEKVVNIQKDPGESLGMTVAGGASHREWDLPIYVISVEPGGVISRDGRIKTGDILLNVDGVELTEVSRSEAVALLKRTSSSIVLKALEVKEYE

Binder | pKd
B1 | 3.95

molecular target: T7, GRIP1_5, Q9Y3R0; test: holdup assay; design: key: below the threshold = too weak to quantify, mostly under pKd 3.1 to 4; conditions: plain residues with an end cap or a label only (N-terminal biotin on a linker: ado-ado)
T7 sequence (Q9Y3R0 568-668, limits assumed, looked up): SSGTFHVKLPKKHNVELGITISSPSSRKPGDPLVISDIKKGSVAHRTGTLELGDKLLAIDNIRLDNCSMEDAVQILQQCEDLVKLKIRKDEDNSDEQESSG

Binder | pKd
B1 | below the threshold

molecular target: PDZRN4_1, Q6ZMN7; test: holdup assay; design: key: below the threshold = too weak to quantify, mostly under pKd 3.1 to 4; conditions: plain residues with an end cap or a label only (N-terminal biotin on a linker: ado-ado)
Sequence (Q6ZMN7 213-318): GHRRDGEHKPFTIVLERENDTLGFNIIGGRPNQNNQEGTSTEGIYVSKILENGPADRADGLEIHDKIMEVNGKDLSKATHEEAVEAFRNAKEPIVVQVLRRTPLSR

Binder | pKd
B1 | 4.19

molecular target: SCRIB_3, Q14160; test: holdup assay; design: key: below the threshold = too weak to quantify, mostly under pKd 3.1 to 4; conditions: plain residues with an end cap or a label only (N-terminal biotin on a linker: ado-ado)
Sequence (Q14160 999-1103): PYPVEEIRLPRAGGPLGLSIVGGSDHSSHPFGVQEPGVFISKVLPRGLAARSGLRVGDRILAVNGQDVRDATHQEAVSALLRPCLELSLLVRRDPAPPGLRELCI

Binder | pKd
B1 | 4.91

molecular target: T8, MPP2, Q14168; test: holdup assay; design: key: below the threshold = too weak to quantify, mostly under pKd 3.1 to 4; conditions: plain residues with an end cap or a label only (N-terminal biotin on a linker: ado-ado)
T8 sequence (Q14168 180-250, limits assumed, looked up): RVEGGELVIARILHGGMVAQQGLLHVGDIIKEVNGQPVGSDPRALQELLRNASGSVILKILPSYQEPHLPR

Binder | pKd
B1 | 4.01

molecular target: T9, PARD3B_1, Q8TEW8; test: holdup assay; design: key: below the threshold = too weak to quantify, mostly under pKd 3.1 to 4; conditions: plain residues with an end cap or a label only (N-terminal biotin on a linker: ado-ado)
T9 sequence (Q8TEW8 196-299, limits assumed, looked up): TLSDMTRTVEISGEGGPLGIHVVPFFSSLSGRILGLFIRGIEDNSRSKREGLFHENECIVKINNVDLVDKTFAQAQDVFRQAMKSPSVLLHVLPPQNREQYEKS

Binder | pKd
B1 | 5

molecular target: T10, DFNB31_3, Q9P202; test: holdup assay; design: key: below the threshold = too weak to quantify, mostly under pKd 3.1 to 4; conditions: plain residues with an end cap or a label only (N-terminal biotin on a linker: ado-ado)
T10 sequence (Q9P202 811-907, limits assumed, looked up): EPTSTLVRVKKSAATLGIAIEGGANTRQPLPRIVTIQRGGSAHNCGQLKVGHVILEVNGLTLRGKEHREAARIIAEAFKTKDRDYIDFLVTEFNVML

Binder | pKd
B1 | 4.62

molecular target: T11, GRIP1_4, Q9Y3R0; test: holdup assay; design: key: below the threshold = too weak to quantify, mostly under pKd 3.1 to 4; conditions: plain residues with an end cap or a label only (N-terminal biotin on a linker: ado-ado)
T11 sequence (Q9Y3R0 467-571, limits assumed, looked up): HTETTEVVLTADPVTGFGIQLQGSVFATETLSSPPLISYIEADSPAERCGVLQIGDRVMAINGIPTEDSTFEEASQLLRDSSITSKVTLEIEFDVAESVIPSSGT

Binder | pKd
B1 | 3.56

molecular target: T12, MPDZ_12, O75970; test: holdup assay; design: key: below the threshold = too weak to quantify, mostly under pKd 3.1 to 4; conditions: plain residues with an end cap or a label only (N-terminal biotin on a linker: ado-ado)
T12 sequence (O75970 1857-1958, limits assumed, looked up): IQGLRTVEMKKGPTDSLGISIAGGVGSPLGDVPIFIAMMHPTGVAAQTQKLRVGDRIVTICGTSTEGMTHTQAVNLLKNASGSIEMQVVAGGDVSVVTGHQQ

Binder | pKd
B1 | 3.62

molecular target: T13, PDZD2_2, O15018; test: holdup assay; design: key: below the threshold = too weak to quantify, mostly under pKd 3.1 to 4; conditions: plain residues with an end cap or a label only (N-terminal biotin on a linker: ado-ado)
T13 sequence (O15018 329-429, limits assumed, looked up): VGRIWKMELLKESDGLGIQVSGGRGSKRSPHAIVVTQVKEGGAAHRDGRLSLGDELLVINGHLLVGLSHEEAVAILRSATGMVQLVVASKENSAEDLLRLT

Binder | pKd
B1 | 4.06

molecular target: DLG1_1, Q12959; test: holdup assay; design: key: below the threshold = too weak to quantify, mostly under pKd 3.1 to 4; conditions: plain residues with an end cap or a label only (N-terminal biotin on a linker: ado-ado)

Binder | pKd
B1 | 4.23

molecular target: SNX27, Q96L92; test: holdup assay; design: key: below the threshold = too weak to quantify, mostly under pKd 3.1 to 4; conditions: plain residues with an end cap or a label only (N-terminal biotin on a linker: ado-ado)

Binder | pKd
B1 | 5.13
